The target in one data set is NT-proBNP (UniProt P16860 27-102). In words: aptamer-functionalised rGO-FET; 0.01x PBS with Tween; response 10 fg/mL to 100 pg/mL; LOD 100 fg/mL in artificial saliva; 0.01x PBS with Tween (1x PBS: 2.7 mM KCl, 137 mM NaCl, 10 mM phosphate, pH 7.4); LOD in artificial saliva; surface blocked with ethanolamine and BSA; temperature not stated. The note with it: protein: commercial.

The target of the next data set is proBNP (UniProt P16860 27-134). The data set can be described thus: aptamer-functionalised CVD graphene FET (GFET); after long-term storage; unexpected concentration-dependent response; 0.01x PBS with Tween (1x PBS: 2.7 mM KCl, 137 mM NaCl, 10 mM phosphate, pH 7.4); LOD in artificial saliva; surface blocked with ethanolamine and BSA; temperature not stated. As to conditions: protein: commercial.
Sequence of proBNP (P16860 27-134): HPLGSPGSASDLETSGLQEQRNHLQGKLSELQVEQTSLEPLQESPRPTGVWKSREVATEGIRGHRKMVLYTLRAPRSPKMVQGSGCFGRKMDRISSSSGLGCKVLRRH

Sequence of NT-proBNP (P16860 27-102): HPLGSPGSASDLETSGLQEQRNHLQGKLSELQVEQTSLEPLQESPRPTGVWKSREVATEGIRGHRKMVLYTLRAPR

B1: N20a aptamer (ssDNA)
DNA: GGCAGGAAGACAAACAGGTCGTAGTGGAAACTGTCCACCGTAGACCGGTTATCTAGTGGTCTGTGGTGCTGT
modifications: 5'-NH2
In the case of B1, the binding result in the data set with NT-proBNP and with proBNP was “binds” throughout.

The record behind these values is article PMC11117807, “Comparative Study of Field-Effect Transistors Based on Graphene Oxide and CVD Graphene in Highly Sensitive NT-proBNP Aptasensors”.
